Measurements as given in publication PMC10277290.
Where a chain is given by its changes, count along the chain named. Names and notes keep the numbering of the source.

B1: MdhBs (NAD+-dependent methanol dehydrogenase) (Geobacillus stearothermophilus) (protein)
chain: MKAAVVNEFKKALEIKEVERPKLEEGEVLVKIEACGVCHTDLHAAHGDWPIKPKLPLIPGHEGVGIVVEVAKGVKSIKVGDRVGIPWLYSACGECEYCLTGQETLCPHQLNGGYSVDGGYAEYCKAPADYVAKIPDNLDPVEVAPILCAGVTTYKALKVSGARPGEWVAIYGIGGLGHIALQYAKAMGLNVVAVDISDEKSKLAKDLGADIAINGLKEDPVKAIHDQVGGVHAAISVAVNKKAFEQAYQSVKRGGTLVVVGLPNADLPIPIFDTVLNGVSVKGSIVGTRKDMQEALDFAARGKVRPIVETAELEEINEVFERMEKGKINGRIVLKLKED
B2: MdhBs (NAD+-dependent methanol dehydrogenase) (Geobacillus stearothermophilus; E309K/N214D) (protein)
chain: B1 chain with N214D, E309K
B3: MdhBs (NAD+-dependent methanol dehydrogenase) (Geobacillus stearothermophilus; K72T/T153P) (protein)
chain: B1 chain with K72T, T153P

substrate: CO; assay: purified protein; type: biochemical, Geobacillus stearothermophilus; settings: NAD+ 0.5 mM, Mg2+ 5 mM, PBS pH 7.4, 37 °C

Compared with B1, B2 is 1.7-fold lower in Km: 30.03 ± 4.63 mM for the first, 18.19 ± 3.27 mM for the second.

Work on B3 yielded a Km of 9.84 ± 0.67 mM.

Going from B1 to B2, the Vmax rises from 0.0115 µmol/min/mg to 0.0238 µmol/min/mg.

B3 showed a Vmax of 0.0288 µmol/min/mg.

First: B1
Second: B2
The kcat of the first is 1.9-fold lower: 0.007 ± 0.001 s⁻¹ for the first, 0.013 ± 0.001 s⁻¹ for the second.

For B3, the kcat was 0.015 ± 0.001 s⁻¹.

Compared with B1, B2 is 3.1-fold higher in kcat/Km: 0.233 M⁻¹ s⁻¹ for the first, 0.715 M⁻¹ s⁻¹ for the second.

With B3 the kcat/Km was 1.52 M⁻¹ s⁻¹.
